This series in a line: soluble fraction after stress (log2 fold change); higher = more stays soluble; pooled small domains, quantitative proteomics. To be noted: stress: 50 degC. Put shortly: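 The stress applied to every library was 50°C. These custom libraries of small protein domains were pooled and measured at high throughput with quantitative proteomics as the read-out. Aggregation propensity is expressed as the base-two logarithm of the fold change in how much of each protein remains soluble. The higher the value, the more of that protein stays in solution.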
With “HMNDTPPELRAALDLLGLKWPLASVELRARYKDLAKQHHPDATGGDKQAEERLKDINRAYSLLKHRLAKQ”, the “soluble fraction (log2)” value is -0.07.

As for “HMAFDDAHYKDMITSYLKKFKKGNRSEIENLIIPKLSEVLVEKQKKDKVKNLLQALRKDNQIRLKGKYWYL”, the “soluble fraction (log2)” value was found to be 0.135. In the case of “HMKQDFVYNGFVEAKGDDLMVQINYKGETYYVTEGESFGGFTVKSANKDKVVLSGQGGAETVLEFR” it was -0.106; in that of “HMSKTEEIAYTTFVKYLENKDIEEVYLGNNAKIKVILKDGREMITDNPRTADFKKDLLLHDIKVVEKT”, 0.219; in that of “HMNMVSGHLQIKKGYYYVVLSYYDNRNKRHVKYVSTGLPEKGNKRKAEAALARVRSEFEPPQE”, -3.55. As for “HMEFPLSPHQYSVLRLMAQGLSNKQIAERLFLSENTVKGYVQEVLRRLGARNRLEAVMIANRRGWL”, the figure is -0.112; as for “HMIISMKKTATKEQIAHVRELIEGMGYKAHMSVGAERVIFGAIGDERGKERLVSLEAQPGVEKVIPIL”, 0.255. “HMKYRPGDVVTLRVARMGEMGAFLDAGTGNTNDDILLHKMQQTEEIKAGQDVKVYLYLDPNRRLTASMKL”: the “soluble fraction (log2)” value is -0.108. In the case of “HMNFAERIKELRKEKGITQIDLAEAVGLSKGTVAMWEVDKREANFDTLNKLSDYFQVSIDYLLGRSNDRS” it was 0.0272; in that of “HMLKDGPIGAYADSVIRDIIEKMERFSKEHINVDMLKIHEKIMLIDEPIIRMALLDEFHRVSHDN”, -2.09. As for “HMSEKIDINNSNELELKQLPLTNEQIKSLIEFRRLHGEIQNIYELKNIDFFNIEKVHELKAHIEIKKII”, the figure is -0.427; as for “HMNGPTPEEKLAVVNAEFVRQYGDEYEELELEGEELEEYYQKALNKEDFEYDIPHLPGWDEP”, 0.0217; as for “HMHPQISVEGVLPLKEAVEFVEREIISHAYSRYRATREVARHLGIDPSTVLRKAAKYGITVEPGKN”, -0.658. Take “HMASIATLTVKALGGASDVVIRDKDGRIIWADRLPAGQSHRVFGHAPFNVAASHASRVQLSLLGKDVGRV”: the “soluble fraction (log2)” value was -0.719.

In the case of “HMVMRHTVEHDAELLAVLRLMYPASSSTKLRKMLTQGRVLVNDDVVHRAKHGVASGDTVDVIVRQRAE”, the “soluble fraction (log2)” value was -1.03.

For “HMRYQIAEARKLRDITQAELAEKMGTTQQTIQRYETNQVNIRMDKMIEMSEILNVSLAYLLGMSSSPEL”, the “soluble fraction (log2)” value is -0.901. In the case of “HMEPSERYKALQSLLPDYAKRLKKKGVTRHQLFLEYRLTHPDGYARSRFGTYFQAYLALSHP” it was -2.27; in that of “HMPRENLAYTLIMDGIVQHKNLPRASVTEAWLKQELQKAGINDFRQVLIAGIDSKGQLYFQPKQK”, 0.528; in that of “HMDSALKDDLNAFVKKLDVESQTLFMRRYFLGESVSSLASRFEMSEDNVGVKLFRIRAKLKKYLTGKGYD”, -2.28.

For the sequence “HMESFGVAIKRLREAQGWTRADFLRQLGKTGYYMHATTLKRIEEGEQIAKVHEAVIISRLFGVTVEEMG”, the “soluble fraction (log2)” value was -2.94. As for “HMVQDSEWWRNYQSAHDYFIQNGHLNVLRSDKKNTKLYNWIVGQRSSRWNSQGRINLLNSIGFIWDT”, the figure is -3.08. “HMISQLRGKVLGTDRDALVIDVGGVGFRVSATAGARALAGQSGNEARLFTEMVVREDSIDLFGF”: the “soluble fraction (log2)” value was 0.217. In the case of “HMRGLVPEIVGTLEGEIRAGTLAVGQKLPTEAEIMARFDVSRTVVREALSRLQASDLVETRHGIGTFVSAR” it was -0.368. In the case of “HMLKLSGEESQQLALRLREELARRRITRQGLADAAKISISTLEQVLAGRRTFTLATIVRLEEGLGIKLL” it was -1.89; in that of “HMDWVAYGAELRRRRLLAGWSVAELSRRTNLSTSIIYQVEQARTRLRPSQLTLAKLAAALGMP”, -3.15; in that of “HMQGIPVTVTAERANLRSGPGTSFDKLGQVVQGDVLTLLEVQNDWYKVKTAEGKTAFVAAYLVNSP”, 0.0205. With “HMVSINETAFIQIKNSSATEIKEKITALKLDELKNVTITADIRTNKLIVVGPKATINKIQELVIELDTES”, the “soluble fraction (log2)” value worked out at 0.281.

With “HMVPTVSVDRDDTLRFEGRPVDWDVLKRELGAVAGIDELKIYADAKVSALTVSKIMKSASEAGVLQFILVT”, the “soluble fraction (log2)” value is -0.188. Regarding “HMVPPELEFLQSLMKIEDISELTAAIENNRDAVTDDFKEMLETVIENISGAPDTDPKLLERLKTIRTVLA”, the “soluble fraction (log2)” value was determined as 0.0197.

With “HMQISDSSLIAKTVATVILENPEAVSDYLGGKHSVVRFMVGQIMKKTQGKANPKMATEMLETALNDL”, the “soluble fraction (log2)” value was -1.13. Turning to “HMVVTRVKAIDVVNIRKSDSETADKLGKAAVGDEFDLLEKKGNGWSKISYEGGEAYIKSEFLEPSE”, the “soluble fraction (log2)” value was 0.145. Turning to “HMGLAGVQSDVKVSFDGDLLVVTSDIARSFNLFAVDGRLIRSVNLIAGRNEIRGLERGFYLAEKQKIFV”, the “soluble fraction (log2)” value was -2.07. Consider “HMSVRPMVEILRVVGSPSPVWVTWARNRAAWLYETGIRPQQRLRMADGTEVLIRLVGEFAHILVVGG”, for which the “soluble fraction (log2)” value was -0.31. As for “HMAGFGDSLEKMSDAVEALKLLMSTEDARNDQNIQKIARELKDVFNKYRTHLRKSYPDQYDRIKSTL”, the figure is -0.299. As for “HMIHANGLTDRQEMILEFIRSYISENNYPPSVREIGKGVGLASSASVHNNMKKLASLGFLNWDTD”, the figure is -1.25; as for “HMELEQLKSQLTGFLKANREQIFTAQNLADGLRMTDSQGYKQVVNALNASVRDGDVIDIKNGYQYNKN”, 0.0729. As for “HMLSYDDTVVIGRNLLENAMKQKNIALEQLTDEVLARLAKELQVESVEAMYAGIGSGKRPSSFIINRLEAH”, the figure is -0.569; as for “HMTKGDRIKARREELGLTQTDLAEAISSTKQNIYKYENNIISNIPSDKVEAIAEVLKISPAYLMGWGDE”, 0.0302. In the case of “HMKVTRWEDTGMKPAEAQEWQHYDFKPQEAMNWRDAGFVPLVARTWSDKGFDASEAQAWRDSVRNS”, the “soluble fraction (log2)” value was -0.19. As for “HMKHFTYEEMELMSIYDPGTREGLIANLEEMRGYLEPDETELRELTDSALEKLRELSDADYEQLELI”, the figure is -0.476; as for “HMRGLLSQREHDVLDLVARGFSYGEIARLRSISVSTVQTHIKNLYRKLAVSSRTEAVYEAKQMGI”, -1.59; as for “HMINNINKLPETQFIKLFANIFENSQFIAVALYKKKGDGFSDFKDLINKIMDIFENTTKEKKLKILNA”, -0.0982. Take “HMKKQLTISDGDWAGKVSSMLEDMGVINSASEFDKYLSDNGYSNVIKSGTYDVSPEDTFQELAEKIT”: the “soluble fraction (log2)” value worked out at 0.414. As for “HMKFYKMIDESDEKIENPEIMIFQIIELVSSTTYSAIINKEPVDVETLKPYLYQTIRTIIINHQS”, the figure is 0.144.

Take “HMREEIESVYKTLAVTEIPYIARGNSARLGSGIQTVYDFYRMEGMQVSKILGRNGSVLWLELHG”: the “soluble fraction (log2)” value amounted to 0.126.

Regarding “HMQAPVDPIVLGKMGSSYGIRGWLRVFSSTEDAESIFDYQPWFIQKAGQWQQVQLESWKHHNQDMIIKLN”, the “soluble fraction (log2)” value was 0.0749. As for “HMPGRKTTFEERLSIIEDLIKHDVNYSWAVDKYHVSYQQVYGWYQKYRKSGNDPQSLRDRRGK”, the figure is -2.7. In the case of “HMGMNKEHFIIELKIYLKALNPKDQAIILAKYKALFDARVAEGETEEQVAKSLGKPRVIAEEILKEQGIE” it was -0.236.

Turning to “HMVKLQATPSQRKTLDELYVQLKKLEPTAKEDLSLLRRLENSHLVSKQEAQGLISKAIGRVGALAVEQQP”, the “soluble fraction (log2)” value turned out to be 0.0652. In the case of “HMEEDPILVAQRFLNIFRQLHIFDQQRREEFNSMILALPPEIRGTFGVLPGGSVLQEYVDELEISKGMA” it was -0.512. In the case of “HMISAVDLMAARRKIEAGITNLQPGQAFTLPNKVGWVKRMTGGSYFIQGNGGYTASVRTISEAIQAAAMLL” it was -0.394. In the case of “HMIGDNNELFQKAQLTPREKEVALLLLQGETNSDIAKILYVGLSTVKKHISSIFEKTKVKSRTEFISKVR” it was -0.803; in that of “HMPFNREYWIEQLLKEVGLMGTPYAELDKHEVELDSPTGRASGFKVNAKTYVDQQLLFIENEYNNQPE”, -0.153; in that of “HMADLNQTDIDSITKSVGGVEQYKSLMDWAGKTLSQDAIDSFDDLVNTGNKGSIQLAVNGLVAQYQNDN”, 0.0325. Consider “HMEEDPVISQAQRQALFKLAHDHFGQEEGNKVILRLIGEHGLRSTTNMTASVYKTVTDALIQVIESMVEG”, for which the “soluble fraction (log2)” value was -0.0318. In the case of “HMIDEKVQAADKSIEIGNLSPLKGLVTDDEMHELEKLFEKVMALKDFEVNDVGAGRKYIEAYVSFFKFAEG”, the “soluble fraction (log2)” value is -0.661. “HMSTDNINYKNILIASLLIHAAKIDENYTENEKNIIKKALIELDEIDSKKADEIMILAEKKE”: the “soluble fraction (log2)” value was -0.221.

On to “HMVANLPFNYKVYAKKGKLYVVISYKDSNGKYKKKWIRTGLDEGTKKKEVNTVADQIAAEYYSSMRLE”, for which the “soluble fraction (log2)” value was -1.54. Consider “HMSIEIIEITSNSSPKNLSEIIDIDATQIVADLMGLGIMKAIDTPLENSEIEQLLEKYNLIAEFVE”, for which the “soluble fraction (log2)” value was -1.47. In the case of “HMEDDIRSSIRTLDQFISKNQITLSKDVKNYILQLLSNDRMVTINELEKIKIYYDSNENIDLDTVKILLN”, the “soluble fraction (log2)” value is -0.754. As to “HMFAKVEGITGDILDKLQQQRGFLALSDKSSPEAIYDTFGVSKKVFKQAIGTLFKQQKISIEAEGIRLV”, the “soluble fraction (log2)” value was -0.709. As for “HMFVEKDSIINKGNNSYNFVITDNNNKVLVEYNGLLPDLFKEEQGVVIEGRLKSDFIIHAFTVF”, the figure is -0.209. As for “HMGQDLSYYIKIVQNQQPVDPLTGEPKVLDYGEVIRQAQILQMLDTGDLDRDKAIGQLSMKDAL”, the figure is 0.0152. For “HMFDLKKIYGTILDETKSSLLLSTDDGREVQIIKTDGTEVLASGLGVYVEVAYRDETPDGYPIALTI”, the “soluble fraction (log2)” value was -0.193.

As for “HMGDPSSERNIQKSIFILIGEKALSVQDISRSLGMPNDIIDKALISGVERNLWLSSDKGEYYL”, the “soluble fraction (log2)” value is -1.1. As for “HMGKEIEAPDFKNMTLKEAKIAAKEYKIRIKKGDEVVSEEVEKGRIVSQDPDAGTTIKTGSTVTVNISKGL”, the “soluble fraction (log2)” value was 0.126. As to “HMETGGLAQEAERELALLQEQIAHHEALYRKGTPEISDGAFDELFDRYQELADSLGVPADERIDRA”, the “soluble fraction (log2)” value was -0.0378. As for “HMNKPTFNIFNNRLTFPFKGDITIYSLDGKRVFSAYNESSVNLSFLNRGSYISEFNNSRSVLIL”, the figure is -1.39.

For the origin of these results see the domain aggregation screens of Martell et al. (2025).
